Source: paper doi:10.1101/2021.11.08.467742

Target: Vibrio maritimus FtsA residues 1-396 (Vibrio maritimus)
Experiment: SPR

“Vibrio maritimus FtsN cytoplasmic peptide, residues 1-29” was tested. Which fold weaker than the EcFtsA^1-405-EcFtsN^1-32 interaction (SPR) did it give?
The fold weaker than the EcFtsA^1-405-EcFtsN^1-32 interaction (SPR) was 3 fold.
